Data reported in publication PMC4019489 (Molecular Biology of the Cell, 2014).

Molecular target: the molecule itself
Assay: SEC

B1: soluble, C-terminally His-tagged extracellular domain of WT JAM-A (junctional adhesion molecule-A) (domain or fragment, UniProt Q9Y624 28-238, looked up)
chain: SVTVHSSEPEVRIPENNPVKLSCAYSGFSSPRVEWKFDQGDTTRLVCYNNKITASYEDRVTFLPTGITFKSVTREDTGTYTCMVSEEGGNSYGEVKVKLIVLVPPSKPTVNIPSSATIGNRAVLTCSEQDGSPPSEYTWFKDGIVMPTNPKSTRAFSNSSYVLNPTTGELVFDPLSASDTGEYSCEARNGYGTPMTSNAVRMEAVERNVGV
  stoichiometry N: 2
